Drawing on paper PMC5524754, “Angiopoietin-like 4 induces a β-catenin-mediated upregulation of ID3 in fibroblasts to reduce scar collagen expression” (Scientific Reports, 2017), this text covers Kd for 1 molecule.

For this experiment, the target named is T1, Extracellular domain of human CDH11 (Abnova) (human, UniProt P55287 54-617).
T1 construct: cadherin-11 (CDH11), human, extracellular domain; No catalogue number is printed; also called cadherin-11; immobilized CDH11; source: bought: Abnova
T1 sequence (looked up): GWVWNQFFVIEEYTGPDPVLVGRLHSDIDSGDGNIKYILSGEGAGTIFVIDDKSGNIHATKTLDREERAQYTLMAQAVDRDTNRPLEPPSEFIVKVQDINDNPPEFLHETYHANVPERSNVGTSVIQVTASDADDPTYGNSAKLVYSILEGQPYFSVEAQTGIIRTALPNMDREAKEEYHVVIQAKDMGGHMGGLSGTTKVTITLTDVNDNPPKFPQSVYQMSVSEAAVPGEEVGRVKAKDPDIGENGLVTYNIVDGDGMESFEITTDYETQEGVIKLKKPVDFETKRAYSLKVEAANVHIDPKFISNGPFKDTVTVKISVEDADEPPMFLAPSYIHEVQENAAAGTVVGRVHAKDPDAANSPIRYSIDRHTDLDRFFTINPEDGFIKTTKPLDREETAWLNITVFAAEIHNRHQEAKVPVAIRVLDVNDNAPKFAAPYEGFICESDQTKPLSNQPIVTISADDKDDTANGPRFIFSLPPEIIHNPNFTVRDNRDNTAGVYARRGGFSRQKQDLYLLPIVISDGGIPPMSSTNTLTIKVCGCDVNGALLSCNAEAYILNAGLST
The experiment in a line: SPR; BIACore 3000; extracellular domain of human CDH11 immobilised on a CM5 chip by amine coupling; PBS running buffer; cANGPTL4 injected at 28.6, 14.3, 7.15, 3.58 and 1.79 nM, 10 uL/min; Langmuir 1:1 model. The settings on record: both partners purified. For orientation: Surface plasmon resonance follows binding to a sensor surface in real time, without labels.

B1: recombinant human cANGPTL4 (C-terminal fibrinogen-like domain of angiopoietin-like 4) (domain or fragment, UniProt Q9BY76 179-401, looked up)
chain: SRLHRLPRDCQELFQVGERQSGLFEIQPQGSPPFLVNCKMTSDGGWTVIQRRHDGSVDFNRPWEAYKAGFGDPHGEFWLGLEKVHSITGDRNSRLAVQLRDWDGNAELLQFSVHLGGEDTAYSLQLTAPVAGQLGATTVPPSGLSVPFSTWDQDHDLRRDKNCAKSLSGGWWFGTCSHSNLNGQYFRSIPQQRQKLKKGIFWKTWRGRYYPLQATTMLIQPMA
notes: angiopoietin-like 4 (ANGPTL4), human, C-terminal fibrinogen-like domain (cANGPTL4); also called recombinant cANGPTL4 protein; source: purified protein for SPR, added to fibroblast cultures and applied to wounds
The Kd is a measure of binding affinity in units of concentration. Read a high Kd as lower affinity. B1 displayed a Kd of 42.8 nM.
